{
  "source": "paper PMC5435347",
  "target": "YFP-MKT1 (Trypanosoma brucei) (UniProt Q587E3)",
  "sequence (Q587E3 whole entry)": "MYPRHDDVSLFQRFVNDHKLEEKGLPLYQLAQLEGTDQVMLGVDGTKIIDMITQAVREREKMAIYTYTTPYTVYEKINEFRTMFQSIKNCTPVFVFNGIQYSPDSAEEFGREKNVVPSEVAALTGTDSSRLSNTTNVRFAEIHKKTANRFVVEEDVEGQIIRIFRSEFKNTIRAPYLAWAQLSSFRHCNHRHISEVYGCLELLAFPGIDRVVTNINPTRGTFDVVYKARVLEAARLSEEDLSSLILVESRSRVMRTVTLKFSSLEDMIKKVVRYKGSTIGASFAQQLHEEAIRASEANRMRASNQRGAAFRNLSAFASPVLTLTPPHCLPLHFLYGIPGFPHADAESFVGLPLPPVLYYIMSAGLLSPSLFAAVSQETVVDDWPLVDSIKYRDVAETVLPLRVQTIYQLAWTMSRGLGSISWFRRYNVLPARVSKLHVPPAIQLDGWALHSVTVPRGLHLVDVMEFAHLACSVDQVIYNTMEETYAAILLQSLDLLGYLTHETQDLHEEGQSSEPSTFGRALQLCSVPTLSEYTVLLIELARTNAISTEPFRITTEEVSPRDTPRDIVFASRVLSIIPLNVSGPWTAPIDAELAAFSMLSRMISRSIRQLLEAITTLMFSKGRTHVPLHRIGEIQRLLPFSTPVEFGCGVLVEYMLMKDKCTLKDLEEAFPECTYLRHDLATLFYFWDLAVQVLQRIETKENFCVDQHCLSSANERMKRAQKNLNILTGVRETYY",
  "test": "co-IP; extracts of bloodstream-form trypanosomes immunoprecipitated with anti-GFP (GBP beads) for YFP-MKT1, Western blot for V5 or myc; 100-150 mM NaCl, 2 h at 4°C; with or without RNase; control cells without YFP-MKT1",
  "data": [
    {"substance": "V5-ZC3H32 (natural protein)", "values": [
      {"measurement": "proportion pulled down", "result": "< 1", "unit": "%"}
    ]},
    {"substance": "ZC3H32-myc (natural protein)", "values": [
      {"measurement": "proportion pulled down", "result": "< 1", "unit": "%"}
    ]}
  ]
}
